Assay results: patent publication US20140044644A1 (UNIVERSITY OF ZURICH, published 2014)

Key:
[1] = biological target: T1, ankG in human brain homogenate (human, UniProt Q12955 1-4377, limits assumed); assay: co-immunoprecipitation (ankG immunoprecipitate) from human AD hippocampus, Western blot
T1 construct: Endogenous protein in co-immunoprecipitation; also called ankG (human frontal cortex, hippocampus, AD hippocampus)
From the text: (§1) FIG. 6: AnkG interacts directly with APP in the brain [0020] (a) AnkG and APP immunoprecipitates from human frontal cortex were immunoblotted with specific antibodies against ankG, APP and ankB. Immunoprecipitates with non-immune IgG served as a negative control. Note that APP co-immunoprecipitated with ankG and vice versa. Human brain homogenate (C) was used as positive control. (b) AnkG immunoprecipitates were obtained from arcAbeta (TG), non-transgenic (NTG) littermates and APP deficient (−/−) mouse brains. Note that APP, but not ankB, co-immunoprecipitated with ankG. Mouse brain homogenate (C) was used as positive control. (c) Primary rat hippocampal cultures were stained with antibodies against the C-terminal portion of APP (green) and with antibodies against ankG (red). Note the presence of both ankG and APP in the AIS. Scale bar=10 μm (upper panels) and Scale bar=30 μm (lower panels). […] AnkG binding to BSA-coated wells (2 mg/ml) served as negative control. Mean values (OD₄₅₀)±SEM are shown (n=6). (e) AnkG and APP immunoprecipitates from human AD hippocampus were immunoblotted with specific antibodies against APP and Caspr and L1. Immunoprecipitates with non-immune IgG served as a negative control. As already shown in (a) APP co-immunoprecipitated with ankG. Note the absence of Caspr and L1 from the immunoprecipitates. AD hippocampus homogenate (+) was used as positive control. […]

[2] = biological target: ankB in mouse brain homogenate (mouse, UniProt Q8C8R3 1-3898, limits assumed); assay: co-immunoprecipitation (ankG immunoprecipitate) from mouse brains, Western blot
From the text: as §1

T1 sequence (Q12955 whole entry): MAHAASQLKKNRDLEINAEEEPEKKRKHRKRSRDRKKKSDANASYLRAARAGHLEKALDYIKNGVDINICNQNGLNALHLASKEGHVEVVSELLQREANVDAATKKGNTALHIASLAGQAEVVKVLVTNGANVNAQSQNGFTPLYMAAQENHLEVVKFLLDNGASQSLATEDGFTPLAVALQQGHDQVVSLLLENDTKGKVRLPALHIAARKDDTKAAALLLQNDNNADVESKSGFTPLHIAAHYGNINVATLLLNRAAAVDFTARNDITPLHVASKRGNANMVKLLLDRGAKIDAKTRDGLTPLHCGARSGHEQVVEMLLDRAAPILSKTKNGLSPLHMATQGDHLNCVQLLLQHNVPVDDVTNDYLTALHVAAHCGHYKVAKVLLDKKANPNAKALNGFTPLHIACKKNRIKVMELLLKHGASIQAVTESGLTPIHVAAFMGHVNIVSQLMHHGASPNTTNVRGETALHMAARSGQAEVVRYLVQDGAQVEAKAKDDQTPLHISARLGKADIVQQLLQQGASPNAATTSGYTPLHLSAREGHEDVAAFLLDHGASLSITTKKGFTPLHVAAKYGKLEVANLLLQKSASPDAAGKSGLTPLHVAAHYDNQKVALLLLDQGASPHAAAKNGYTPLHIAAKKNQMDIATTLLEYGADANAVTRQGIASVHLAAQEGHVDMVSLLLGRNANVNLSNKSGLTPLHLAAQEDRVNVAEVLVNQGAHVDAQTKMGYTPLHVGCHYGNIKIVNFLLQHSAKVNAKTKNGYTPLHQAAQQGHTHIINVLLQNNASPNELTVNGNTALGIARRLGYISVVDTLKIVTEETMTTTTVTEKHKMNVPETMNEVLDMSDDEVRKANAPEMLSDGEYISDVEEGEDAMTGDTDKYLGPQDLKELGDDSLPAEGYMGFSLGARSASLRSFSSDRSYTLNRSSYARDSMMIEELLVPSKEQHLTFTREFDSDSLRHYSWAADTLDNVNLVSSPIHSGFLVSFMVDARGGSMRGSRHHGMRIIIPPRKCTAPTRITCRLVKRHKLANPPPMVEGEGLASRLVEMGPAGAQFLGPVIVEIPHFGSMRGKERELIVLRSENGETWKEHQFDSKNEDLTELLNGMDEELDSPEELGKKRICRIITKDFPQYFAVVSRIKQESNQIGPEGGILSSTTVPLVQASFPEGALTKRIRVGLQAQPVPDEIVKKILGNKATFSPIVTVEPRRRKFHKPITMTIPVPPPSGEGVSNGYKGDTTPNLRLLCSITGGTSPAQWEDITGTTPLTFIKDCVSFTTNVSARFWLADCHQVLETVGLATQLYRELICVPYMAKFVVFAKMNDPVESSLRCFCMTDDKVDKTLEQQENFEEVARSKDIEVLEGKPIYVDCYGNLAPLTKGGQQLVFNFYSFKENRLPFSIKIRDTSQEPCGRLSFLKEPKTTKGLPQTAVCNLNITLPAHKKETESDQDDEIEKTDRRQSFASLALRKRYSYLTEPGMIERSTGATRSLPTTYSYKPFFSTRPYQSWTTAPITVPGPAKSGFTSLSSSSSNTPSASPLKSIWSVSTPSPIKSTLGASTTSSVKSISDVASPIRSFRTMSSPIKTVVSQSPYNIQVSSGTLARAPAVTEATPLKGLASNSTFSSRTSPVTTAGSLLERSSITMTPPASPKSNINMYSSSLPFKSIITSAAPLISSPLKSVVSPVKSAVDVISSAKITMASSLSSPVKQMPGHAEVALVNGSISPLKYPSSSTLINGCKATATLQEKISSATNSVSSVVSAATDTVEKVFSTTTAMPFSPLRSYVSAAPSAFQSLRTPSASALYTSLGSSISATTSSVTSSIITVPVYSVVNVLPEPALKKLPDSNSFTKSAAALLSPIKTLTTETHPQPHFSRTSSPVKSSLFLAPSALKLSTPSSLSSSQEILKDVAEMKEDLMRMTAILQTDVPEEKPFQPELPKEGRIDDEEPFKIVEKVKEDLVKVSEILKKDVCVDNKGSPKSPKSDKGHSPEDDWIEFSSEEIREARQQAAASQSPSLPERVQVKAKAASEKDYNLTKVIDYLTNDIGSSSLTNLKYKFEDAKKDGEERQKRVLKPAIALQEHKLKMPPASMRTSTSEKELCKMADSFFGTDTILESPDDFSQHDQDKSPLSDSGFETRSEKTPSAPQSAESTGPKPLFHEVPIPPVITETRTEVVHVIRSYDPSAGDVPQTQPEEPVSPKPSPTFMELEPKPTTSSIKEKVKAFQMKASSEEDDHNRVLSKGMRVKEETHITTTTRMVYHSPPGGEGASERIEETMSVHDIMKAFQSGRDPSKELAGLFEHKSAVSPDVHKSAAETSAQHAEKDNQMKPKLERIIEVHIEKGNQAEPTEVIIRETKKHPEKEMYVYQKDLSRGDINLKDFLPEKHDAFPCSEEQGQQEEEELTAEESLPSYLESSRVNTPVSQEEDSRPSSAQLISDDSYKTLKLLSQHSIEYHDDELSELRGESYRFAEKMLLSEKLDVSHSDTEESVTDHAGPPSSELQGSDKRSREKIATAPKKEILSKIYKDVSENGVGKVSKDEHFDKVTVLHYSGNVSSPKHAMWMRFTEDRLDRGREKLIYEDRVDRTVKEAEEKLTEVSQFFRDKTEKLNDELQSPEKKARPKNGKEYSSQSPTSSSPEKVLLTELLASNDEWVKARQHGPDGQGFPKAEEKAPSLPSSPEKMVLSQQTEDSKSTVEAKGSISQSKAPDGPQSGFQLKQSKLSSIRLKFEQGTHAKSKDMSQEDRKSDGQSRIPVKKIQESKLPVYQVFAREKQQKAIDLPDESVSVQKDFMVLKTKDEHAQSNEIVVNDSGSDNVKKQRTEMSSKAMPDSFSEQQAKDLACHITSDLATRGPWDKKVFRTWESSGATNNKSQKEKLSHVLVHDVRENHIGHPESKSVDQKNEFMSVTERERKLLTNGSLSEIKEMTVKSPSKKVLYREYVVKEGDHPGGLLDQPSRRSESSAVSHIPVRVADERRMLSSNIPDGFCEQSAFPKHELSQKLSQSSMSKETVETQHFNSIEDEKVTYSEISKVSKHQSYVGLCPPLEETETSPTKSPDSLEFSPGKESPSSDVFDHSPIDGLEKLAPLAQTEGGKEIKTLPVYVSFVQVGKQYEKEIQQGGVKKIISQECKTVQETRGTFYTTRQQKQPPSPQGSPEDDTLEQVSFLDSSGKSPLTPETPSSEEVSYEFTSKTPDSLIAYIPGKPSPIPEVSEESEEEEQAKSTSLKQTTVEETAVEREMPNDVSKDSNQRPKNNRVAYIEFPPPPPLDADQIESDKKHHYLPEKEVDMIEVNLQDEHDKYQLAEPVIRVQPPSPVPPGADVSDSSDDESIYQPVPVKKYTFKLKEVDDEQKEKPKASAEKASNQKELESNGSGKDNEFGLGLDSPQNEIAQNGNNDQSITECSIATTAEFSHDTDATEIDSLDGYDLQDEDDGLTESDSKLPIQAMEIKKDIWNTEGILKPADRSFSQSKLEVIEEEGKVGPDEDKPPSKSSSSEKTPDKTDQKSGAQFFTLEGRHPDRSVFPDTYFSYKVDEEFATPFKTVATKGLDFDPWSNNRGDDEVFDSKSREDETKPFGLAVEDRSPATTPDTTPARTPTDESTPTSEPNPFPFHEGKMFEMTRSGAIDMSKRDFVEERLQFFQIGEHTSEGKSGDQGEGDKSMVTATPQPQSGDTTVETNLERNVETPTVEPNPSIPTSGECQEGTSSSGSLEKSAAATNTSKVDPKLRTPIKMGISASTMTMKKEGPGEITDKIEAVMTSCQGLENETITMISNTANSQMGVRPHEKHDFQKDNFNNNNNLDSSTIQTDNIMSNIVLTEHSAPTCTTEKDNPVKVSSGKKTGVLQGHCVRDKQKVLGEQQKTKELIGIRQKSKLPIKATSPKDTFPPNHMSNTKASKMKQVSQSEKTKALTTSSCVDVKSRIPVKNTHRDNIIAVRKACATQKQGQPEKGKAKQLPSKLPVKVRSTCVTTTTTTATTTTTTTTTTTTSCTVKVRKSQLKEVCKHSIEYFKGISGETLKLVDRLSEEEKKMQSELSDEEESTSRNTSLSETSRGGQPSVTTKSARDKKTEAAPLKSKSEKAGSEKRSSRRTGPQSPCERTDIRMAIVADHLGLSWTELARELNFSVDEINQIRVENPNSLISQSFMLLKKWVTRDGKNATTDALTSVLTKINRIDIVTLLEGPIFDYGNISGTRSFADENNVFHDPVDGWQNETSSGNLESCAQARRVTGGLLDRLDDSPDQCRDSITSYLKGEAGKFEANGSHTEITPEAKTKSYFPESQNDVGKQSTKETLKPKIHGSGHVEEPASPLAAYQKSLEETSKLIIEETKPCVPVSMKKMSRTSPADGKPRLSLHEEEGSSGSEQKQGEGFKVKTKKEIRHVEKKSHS

Binder | binding result [1] | binding result [2]
Caspr in human AD hippocampus homogenate (other, UniProt P78357 20-1384, looked up) WGYYGCDEELVGPLYARSLGASSYYSLLTAPRFARLHGISGWSPRIGDPNPWLQIDLMKKHRIRAVATQGSFNSWDWVTRYMLLYGDRVDSWTPFYQRGHNSTFFGNVNESAVVRHDLHFHFTARYIRIVPLAWNPRGKIGLRLGLYGCPYKADILYFDGDDAISYRFPRGVSRSLWDVFAFSFKTEEKDGLLLHAEGAQGDYVTLELEGAHLLLHMSLGSSPIQPRPGHTTVSAGGVLNDQHWHYVRVDRFGRDVNFTLDGYVQRFILNGDFERLNLDTEMFIGGLVGAARKNLAYRHNFRGCIENVIFNRVNIADLAVRRHSRITFEGKVAFRCLDPVPHPINFGGPHNFVQVPGFPRRGRLAVSFRFRTWDLTGLLLFSRLGDGLGHVELTLSEGQVNVSIAQSGRKKLQFAAGYRLNDGFWHEVNFVAQENHAVISIDDVEGAEVRVSYPLLIRTGTSYFFGGCPKPASRWDCHSNQTAFHGCMELLKVDGQLVNLTLVEGRRLGFYAEVLFDTCGITDRCSPNMCEHDGRCYQSWDDFICYCELTGYKGETCHTPLYKESCEAYRLSGKTSGNFTIDPDGSGPLKPFVVYCDIRENRAWTVVRHDRLWTTRVTGSSMERPFLGAIQYWNASWEEVSALANASQHCEQWIEFSCYNSRLLNTAGGYPYSFWIGRNEEQHFYWGGSQPGIQRCACGLDRSCVDPALYCNCDADQPQWRTDKGLLTFVDHLPVTQVVIGDTNRSTSEAQFFLRPLRCYGDRNSWNTISFHTGAALRFPPIRANHSLDVSFYFRTSAPSGVFLENMGGPYCQWRRPYVRVELNTSRDVVFAFDVGNGDENLTVHSDDFEFNDDEWHLVRAEINVKQARLRVDHRPWVLRPMPLQTYIWMEYDQPLYVGSAELKRRPFVGCLRAMRLNGVTLNLEGRANASEGTSPNCTGHCAHPRLPCFHGGRCVERYSYYTCDCDLTAFDGPYCNHDIGGFFEPGTWMRYNLQSALRSAAREFSHMLSRPVPGYEPGYIPGYDTPGYVPGYHGPGYRLPDYPRPGRPVPGYRGPVYNVTGEEVSFSFSTSSAPAVLLYVSSFVRDYMAVLIKDDGTLQLRYQLGTSPYVYQLTTRPVTDGQPHSINITRVYRNLFIQVDYFPLTEQKFSLLVDSQLDSPKALYLGRVMETGVIDPEIQRYNTPGFSGCLSGVRFNNVAPLKTHFRTPRPMTAELAEALRVQGELSESNCGAMPRLVSEVPPELDPWYLPPDFPYYHDEGWVAILLGFLVAFLLLGLVGMLVLFYLQNHRYKGSYHTNEPKAAHEYHPGSKPPLPTSGPAQVPTPTAAPNQAPASAPAPAPTPAPAPGPRDQNLPQILEESRSE | no binding | 
ankG in mouse brain homogenate (other, UniProt G5E8K5 1-1961, looked up, also called ankG (arcAbeta, non-transgenic and APP deficient mouse brains)) MSEEPKEKPAKPAHRKRKGKKSDANASYLRAARAGHLEKALDYIKNGVDVNICNQNGLNALHLASKEGHVEVVSELLQREANVDAATKKGNTALHIASLAGQAEVVKVLVTNGANVNAQSQNGFTPLYMAAQENHLEVVRFLLDNGASQSLATEDGFTPLAVALQQGHDQVVSLLLENDTKGKVRLPALHIAARKDDTKAAALLLQNDTNADVESKSGFTPLHIAAHYGNINVATLLLNRAAAVDFTARNDITPLHVASKRGNANMVKLLLDRGAKIDAKTRDGLTPLHCGARSGHEQVVEMLLDRSAPILSKTKNGLSPLHMATQGDHLNCVQLLLQHNVPVDDVTNDYLTALHVAAHCGHYKVAKVLLDKKASPNAKALNGFTPLHIACKKNRIRVMELLLKHGASIQAVTESGLTPIHVAAFMGHVNIVSQLMHHGASPNTTNVRGETALHMAARSGQAEVVRYLVQDGAQVEAKAKDDQTPLHISARLGKADIVQQLLQQGASPNAATTSGYTPLHLAAREGHEDVAAFLLDHGASLSITTKKGFTPLHVAAKYGKLEVASLLLQKSASPDAAGKSGLTPLHVAAHYDNQKVALLLLDQGASPHAAAKNGYTPLHIAAKKNQMDIATSLLEYGADANAVTRQGIASVHLAAQEGHVDMVSLLLSRNANVNLSNKSGLTPLHLAAQEDRVNVAEVLVNQGAHVDAQTKMGYTPLHVGCHYGNIKIVNFLLQHSAKVNAKTKNGYTALHQAAQQGHTHIINVLLQNNASPNELTVNGNTALAIARRLGYISVVDTLKVVTEEIMTTTTITEKHKMNVPETMNEVLDMSDDEVRKASAPEKLSDGEYISDGEEGDKCTWFKIPKVQEVLVKSEDAITGDTDKYLGPQDLKELGDDSLPAEGYVGFSLGARSASLRSFSSDRSYTLNRSSYARDSMMIEELLVPSKEQHLTFTREFDSDSLRHYSWAADTLDNVNLVSSPVHSGFLVSFMVDARGGSMRGSRHHGMRIIIPPRKCTAPTRITCRLVKRHKLANPPPMVEGEGLASRLVEMGPAGAQFLGPVIVEIPHFGSMRGKERELIVLRSENGETWKEHQFDSKNEDLAELLNGMDEELDSPEELGTKRICRIITKDFPQYFAVVSRIKQESNQIGPEGGILSSTTVPLVQASFPEGALTKRIRVGLQAQPVPEETVKKILGNKATFSPIVTVEPRRRKFHKPITMTIPVPPPSGEGVSNGYKGDATPNLRLLCSITGGTSPAQWEDITGTTPLTFIKDCVSFTTNVSARFWLADCHQVLETVGLASQLYRELICVPYMAKFVVFAKTNDPVESSLRCFCMTDDRVDKTLEQQENFEEVARSKDIEVLEGKPIYVDCYGNLAPLTKGGQQLVFNFYSFKENRLPFSIKIRDTSQEPCGRLSFLKEPKTTKGLPQTAVCNLNITLPAHKKAEKADRRQSFASLALRKRYSYLTEPSMSPQSPCERTDIRMAIVADHLGLSWTELARELNFSVDEINQIRVENPNSLISQSFMLLKKWVTRDGKNATTDALTSVLTKINRIDIVTLLEGPIFDYGNISGTRSFADENNVFHDPVDGHPSFQVELETPMGLYCTPPNPFQQDDHFSDISSIESPFRTPSRLSDGLVPSQGNIEHPTGGPPVVTAEDTSLEDSKMDDSVTVTDPADPLDVDESQLKDLCQSECAQCWASVPGIPNDGRQAEPLRPQTRKVGMSSEQQEKGKSGPDEEVTEDKVKSLFEDIQLEEVEAEEMTEDQGQAMLNRVQRAELAMSSLAGWQNETPSGSLESPAQARRLTGGLLDRLDDSSDQARDSITSYLTGEPGKIEANGNHTAEVIPEAKAKPYFPESQNDIGKQSIKENLKPKTHGCGRTEEPVSPLTAYQKSLEETSKLVIEDAPKPCVPVGMKKMTRTTADGKARLNLQEEEGSTRSEPKQGEGYKVKTKKEIRNVEKKTH |  | no binding
